Each block holds one binder with its values, some of them ahead of it. Ends that are not written are not given here.
Columns and labels:
^CDD_(ElaJ) = molecular target: T1, ^CDD_(ElaJ); experiment: FRET or BRET; KD-FRET: sensitized-emission (three-channel) FRET microscopy of single living E. coli BW25993 cells (UvrA/UvrB: uvrA uvrB double deletion strain), donor eGFPd fusion from pFF838, acceptor mRFP fusion from pBBR6k, M9 medium, 37 °C; corrections to step 6; FRET efficiency against binned acceptor concentration fitted to a quadratic binding equation; conditions: partners not purified
T1 chain: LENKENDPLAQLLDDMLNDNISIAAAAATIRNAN

eGFPd-^CDD_(MlnB) [1] = molecular target: T2, eGFPd-^CDD_(MlnB); experiment: FRET or BRET; in vitro FRET with purified fusion proteins in PBS, plate reader, 37 °C; donor protein fixed at 1 × 10^-6 M, acceptor protein 0 to 20 × 10^-6 M; conditions: both partners purified
T2 chain: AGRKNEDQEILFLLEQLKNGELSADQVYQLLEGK

eGFPd-^CDD_(MlnB) [2] = molecular target: T2, eGFPd-^CDD_(MlnB); experiment: ITC; cell: 80 × 10^-6 M eGFPd-CDD_MlnB; syringe: 1.6 × 10^-3 M NDD_MlnC-mRFP, 20 injections of 2 µL; 20 mM Tris-HCl pH 7.9, 250 mM NaCl, 1 mM EDTA, 10% glycerol, 1 mM TCEP; 37 °C; single binding site model; conditions: both partners purified
eGFPd-^CDD_(MlnB) [3] = molecular target: T2, eGFPd-^CDD_(MlnB); experiment: FRET or BRET; KD-FRET: sensitized-emission (three-channel) FRET microscopy of single living E. coli BW25993 cells (UvrA/UvrB: uvrA uvrB double deletion strain), donor eGFPd fusion from pFF838, acceptor mRFP fusion from pBBR6k, M9 medium, 37 °C; corrections to step 6; FRET efficiency against binned acceptor concentration fitted to a quadratic binding equation; conditions: partners not purified
[4] = molecular target: T3, ^CDD_(MlnD) labeled with eGFPd; experiment: FRET or BRET; in vitro FRET with purified fusion proteins in PBS, plate reader, 37 °C; donor protein fixed at 1 × 10^-6 M, acceptor protein 0 to 20 × 10^-6 M; conditions: both partners purified
T3 chain: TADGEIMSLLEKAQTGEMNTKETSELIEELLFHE

[5] = molecular target: T3, ^CDD_(MlnD) labeled with eGFPd; experiment: FRET or BRET; KD-FRET: sensitized-emission (three-channel) FRET microscopy of single living E. coli BW25993 cells (UvrA/UvrB: uvrA uvrB double deletion strain), donor eGFPd fusion from pFF838, acceptor mRFP fusion from pBBR6k, M9 medium, 37 °C; corrections to step 6; FRET efficiency against binned acceptor concentration fitted to a quadratic binding equation; conditions: partners not purified
UvrA-eGFPd = molecular target: T4, UvrA-eGFPd (E. coli, UniProt P0A698 1-940); experiment: as above; conditions: partners not purified
T4 construct: UvrA, nucleotide excision repair protein of E. coli; source: E. coli BW25993 with double deletion of uvrA and uvrB (SY006), expressed from the donor vector, in living cells; not shown: eGFPd, C-terminal, kept
T4 sequence (looked up): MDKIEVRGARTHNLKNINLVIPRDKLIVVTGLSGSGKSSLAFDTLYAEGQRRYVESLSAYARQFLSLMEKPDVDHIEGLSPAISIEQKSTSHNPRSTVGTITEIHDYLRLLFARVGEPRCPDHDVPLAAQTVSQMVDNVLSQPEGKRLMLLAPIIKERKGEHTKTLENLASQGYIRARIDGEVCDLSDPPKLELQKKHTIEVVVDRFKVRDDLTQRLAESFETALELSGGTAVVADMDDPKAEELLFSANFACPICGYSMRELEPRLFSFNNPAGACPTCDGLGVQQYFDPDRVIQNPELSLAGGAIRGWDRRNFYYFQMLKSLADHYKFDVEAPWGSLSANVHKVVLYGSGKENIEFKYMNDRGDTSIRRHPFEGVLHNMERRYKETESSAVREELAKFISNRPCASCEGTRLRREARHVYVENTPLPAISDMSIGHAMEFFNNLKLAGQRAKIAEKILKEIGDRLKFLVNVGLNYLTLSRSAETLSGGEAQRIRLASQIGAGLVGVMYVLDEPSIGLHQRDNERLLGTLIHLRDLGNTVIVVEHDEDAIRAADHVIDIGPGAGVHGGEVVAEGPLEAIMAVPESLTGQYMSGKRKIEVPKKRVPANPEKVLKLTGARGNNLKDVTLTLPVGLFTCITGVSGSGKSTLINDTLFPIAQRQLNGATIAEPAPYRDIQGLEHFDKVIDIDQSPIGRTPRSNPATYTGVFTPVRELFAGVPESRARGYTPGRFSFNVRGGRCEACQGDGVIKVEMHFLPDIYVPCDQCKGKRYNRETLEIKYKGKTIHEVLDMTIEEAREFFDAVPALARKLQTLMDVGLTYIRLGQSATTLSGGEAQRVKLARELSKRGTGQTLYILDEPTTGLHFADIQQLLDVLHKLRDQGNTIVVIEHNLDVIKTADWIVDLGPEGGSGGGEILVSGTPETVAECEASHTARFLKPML

Binder: MKDYIEHILEEIKHNRLSKQEGLEQIRQFRSKGNV (domain or fragment, not fully specified) [^NDD_(ElaK)]
Kd (^CDD_(ElaJ)): 1180 nM

Kd (eGFPd-^CDD_(MlnB) [1]): 5660 nM
Kd (eGFPd-^CDD_(MlnB) [2]): 6850 nM
Binder: MQIKQILSLIEEQQMSPDAGLELIRTYRKEQMEKK (domain or fragment, also: fused to mRFP) [^NDD_(MlnC)-mRFP]
Kd (eGFPd-^CDD_(MlnB) [3]): 2290 nM

Kd [4]: 1500 nM
Binder: MNEKTMQIEQIVKKVKECSLTPEEGLELIKSLGKT (domain or fragment, also: labeled with mRFP) [^NDD_(MlnE) labeled with mRFP]
Kd [5]: 250 nM

B1: UvrB-mRFP (natural protein, E. coli, UniProt P0A8F8 1-673, looked up)
chain: MSKPFKLNSAFKPSGDQPEAIRRLEEGLEDGLAHQTLLGVTGSGKTFTIANVIADLQRPTMVLAPNKTLAAQLYGEMKEFFPENAVEYFVSYYDYYQPEAYVPSSDTFIEKDASVNEHIEQMRLSATKAMLERRDVVVVASVSAIYGLGDPDLYLKMMLHLTVGMIIDQRAILRRLAELQYARNDQAFQRGTFRVRGEVIDIFPAESDDIALRVELFDEEVERLSLFDPLTGQIVSTIPRFTIYPKTHYVTPRERIVQAMEEIKEELAARRKVLLENNKLLEEQRLTQRTQFDLEMMNELGYCSGIENYSRFLSGRGPGEPPPTLFDYLPADGLLVVDESHVTIPQIGGMYRGDRARKETLVEYGFRLPSALDNRPLKFEEFEALAPQTIYVSATPGNYELEKSGGDVVDQVVRPTGLLDPIIEVRPVATQVDDLLSEIRQRAAINERVLVTTLTKRMAEDLTEYLEEHGERVRYLHSDIDTVERMEIIRDLRLGEFDVLVGINLLREGLDMPEVSLVAILDADKEGFLRSERSLIQTIGRAARNVNGKAILYGDKITPSMAKAIGETERRREKQQKYNEEHGITPQGLNKKVVDILALGQNIAKTKAKGRGKSRPIVEPDNVPMDMSPKALQQKIHELEGLMMQHAQNLEFEEAAQIRDQLHQLRELFIAAS
notes: UvrB, nucleotide excision repair protein of E. coli; source: E. coli BW25993 with double deletion of uvrA and uvrB (SY006), expressed from the acceptor vector, in living cells; not shown: mRFP, C-terminal, kept
Kd (UvrA-eGFPd): 170 nM

Reference: PMC12097012, “Direct Quantification of Protein–Protein Interactions in Living Bacterial Cells” (Advanced Science, 2025)
